Assay results reported in PMC11230452 (bioRxiv, 2024).
Where a chain is given by its changes, count along the chain named. Names and notes keep the numbering of the source.

B1: K2P13.1EM (human K2P13.1 (THIK-1) residues 1-350, N59Q/N65Q) (domain or fragment, UniProt Q9HB14 1-350, looked up)
chain: MAGRGFSWGPGHLNEDNARFLLLAALIVLYLLGGAAVFSALELAHERQAKQRWEERLAQFSRGHQLSRDELRGFLRHYEEATRAGIRVDNVRPRWDFTGAFYFVGTVVSTIGFGMTTPATVGGKIFLIFYGLVGCSSTILFFNLFLERLITIIAYIMKSCHQRQLRRRGALPQESLKDAGQCEVDSLAGWKPSVYYVMLILCTASILISCCASAMYTPIEGWSYFDSLYFCFVAFSTIGFGDLVSSQNAHYESQGLYRFANFVFILMGVCCIYSLFNVISILIKQSLNWILRKMDSGCCPQCQRGLLRSRRNVVMPGSVRNRCNISIETDGVAESDTDGRRLSGEMISMK
B2: K2P13.1EM S136P/Y273A (domain or fragment, human, UniProt Q9HB14 1-350, looked up)
chain: B1 chain with S136P, Y273A

Target: the molecule itself
Experiment: cryo-EM structure

Protein	stoichiometry N	binding result
B1	2	–
B2	–	binds
